The results in this text go back to PMC9614721, “Polyvalent Glycan Quantum Dots as a Multifunctional Tool for Revealing Thermodynamic, Kinetic, and Structural Details of Multivalent Lectin–Glycan Interactions” (ACS Applied Materials & Interfaces, 2022).

Data set [1] deals with DC-SIGN with its C-terminal 16 amino acids truncated, soluble extracellular segment, Q274C, labeled with Atto-594 (UniProt Q9NNX6). The data set can be described thus: dynamic light scattering; purified lectins in solution; hydrodynamic diameters ~14 nm; identity also checked by HRMS and UV-vis spectroscopy.
Data set [2] concerns the molecule itself. Described as above.

As for “DC-SIGN with its C-terminal 16 amino acids truncated, soluble extracellular segment, Q274C, labeled with Atto-594 (from UniProt Q9NNX6 59-404) (domain or fragment)”, the stoichiometry N (commonly a count of units in the complex or per binding partner) in data set [1] is 4.

B1: DC-SIGNR, soluble extracellular segment, R287C, labeled with Atto-594 (domain or fragment, UniProt Q9H2X3 71-399, looked up)
chain: QVSKVPSSLSQEQSEQDAIYQNLTQLKAAVGELSEKSKLQEIYQELTQLKAAVGELPEKSKLQEIYQELTRLKAAVGELPEKSKLQEIYQELTRLKAAVGELPEKSKLQEIYQELTRLKAAVGELPEKSKLQEIYQELTELKAAVGELPEKSKLQEIYQELTQLKAAVGELPDQSKQQQIYQELTDLKTAFERLCRHCPKDWTFFQGNCYFMSNSQCNWHDSVTACQEVRAQLVVIKTAEEQNFLQLQTSRSNRFSWMGLSDLNQEGTWQWVDGSPLSPSFQRYWNSGEPNNSGNEDCAEFSGSGWNDNRCDVDNYWICKKPAACFRDE
modifications: maleimide-modified Atto-594 dye on the cysteine introduced at R287 (labeling efficiency ~85% per monomer)
notes: DC-SIGNR, soluble extracellular segment; also called a DC-SIGN related lectin found on endothelial cells; source: expressed, purified
For the molecule B1, the “stoichiometry N” value in data set [2] came to 4.

B2: DC-SIGN, soluble extracellular segment, Q274C, labeled with Atto-594 (domain or fragment, UniProt Q9NNX6 59-404, looked up)
chain: QVSKVPSSISQEQSRQDAIYQNLTQLKAAVGELSEKSKLQEIYQELTQLKAAVGELPEKSKLQEIYQELTRLKAAVGELPEKSKLQEIYQELTWLKAAVGELPEKSKMQEIYQELTRLKAAVGELPEKSKQQEIYQELTRLKAAVGELPEKSKQQEIYQELTRLKAAVGELPEKSKQQEIYQELTQLKAAVERLCHPCPWEWTFFQGNCYFMSNSCRNWHDSITACKEVGAQLVVIKSAEEQNFLQLQSSRSNRFTWMGLSDLNQEGTWQWVDGSPLLPSFKQYWNRGEPNNVGEEDCAEFSGNGWNDDKCNLAKFWICKKSAASCSRDEEQFLSPAPATPNPPPA
modifications: maleimide-modified Atto-594 dye on the cysteine introduced at Q274 (labeling efficiency ~85% per monomer)
notes: DC-SIGN, soluble extracellular segment; also called dendritic-cell-specific intercellular adhesion molecule-3-grabbing nonintegrin; source: expressed, purified
For B2, the “stoichiometry N” value in data set [2] was determined as 4.
